Measured values published in patent US20240352438A1, “MEANS AND METHODS FOR DETOXIFYING OCHRATOXIN A” (DSM Austria GmbH, priority 2021, published 2024).

Assays:
[1] = OTA detoxification activity assay (specific activity, fluorescence reduction ex/em 390/450 nm); type: biochemical; conditions: SEQ ID NO: 2 = 100%
Method in brief: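 Recombinant enzyme preparation with 200 ng/mL OTA in 100 mM sodium phosphate, at pH 6.0 and pH 7.5, 37° C. Degradation followed as the fall in fluorescence at ex/em 390/450 nm. Specific activity taken from the initial linear slope; one unit degrades 1 μmol OTA per min at a starting OTA of […].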

[2] = Thermostability assay: residual OTA detoxification activity after 10 min incubation at 45-99° C. (T50); type: physicochemical; conditions: 0.1 mg/mL protein in 20 mM Tris-HCl pH 7.5, residual OTA detoxification activity relative to 4° C. reference aliquot
Method in brief: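 Purified enzyme at 0.1 mg/mL in 20 mM Tris-HCl pH 7.5 was heated 10 min at 45–99 °C, then held at 4 °C. Residual OTA detoxification activity was expressed relative to an aliquot kept at 4 °C throughout; T50 is the temperature range giving 50% activity loss.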

B1: 40 (protein)
chain: MYSLAIRNGIVFDGEKFIGKTNIYVDGDKIVKITNERLDAKEEVNAEGYFVMPGLIDAHLHLTGIRGGSLLMGYLLDDPRTRLLRAANWARELLMAGFTTVRDCGEPNSIILRNAINEGIIPGPRIIAAGSPITQTFGHAELSHSLPLEWSIQLGFGEICDGVDECIKAARKVLRSGADFIKIMATGGVLSERDRPEWPQLTPEEMSAIVREAEKVGTYVAAHAHGDKGARIAVEAGVRTIEHGSLITEETVKLMAEKGVSLTPTLSIIELIYKYGKQMGIDPWGLEKIGQVREGVINSIKLARKYGVMILAGTDLGFKTGLDIDMGKNWVEVKLLVELGGLSSEEALRAATGNASKMLRLNTGIIREGYLADIVLINGNPLENINDIARVSTVIKGGKVTVENGKLI
modifications: exemplary polypeptide
[1]
  Specific OTA detoxification activities in % compared to the enzyme of SEQ ID NO: 2, pH 6.0: 15.00%
  Specific OTA detoxification activities in % compared to the enzyme of SEQ ID NO: 2, pH 7.5: 61.00%
[2]
  T50 (temperature at which 50% of the initial activity was maintained): >99 °C

B2: 44 (protein)
chain: MYSLAIRNGIVFDGEKFIGKTNIYVDGDKIVKITNERLDAKEEVNAEGYFVMPGLIDAHLHLTGIRGGSLLMGYLLDDPRTRLLRAANWARELLMAGFTTVRDCGEPNSIILRNAINEGIIPGPRIIAAGSPITQTFGHAELSHSLPLEWSIQLGFGEICDGVDECIKAARKVLRSGADFIKIMATGGVLSERDRPEWPQLTPEEMSAIVREAEKVGTYVAAHAHGDKGARIAVEAGVRTIEHGSLITEETVKLMAEKGVSLTPTLSIQELVYKYGKQMGIDPWGLEKIGQVREGVINSIKLARKYGVMILAGTDLGFKTGLDIDMGKNWVEVKLLVELGGLSSEEALRAATGNASKMLRLNTGIIREGYLADIVLINGNPLENINDIARVSTVIKGGKVTVENGKLI
modifications: exemplary polypeptide
[1]
  Specific OTA detoxification activities in % compared to the enzyme of SEQ ID NO: 2, pH 6.0: 84.00%
  Specific OTA detoxification activities in % compared to the enzyme of SEQ ID NO: 2, pH 7.5: 84.00%
[2]
  T50 (temperature at which 50% of the initial activity was maintained): >99 °C

B3: 43 (protein)
chain: MYSLAIRNGIVFDGEKFIGKTNIYVDGDKIVKITNERLDAKEEVNAEGYFVMPGLIDAHLHLTGIRGGSLLMGYLLDDPRTRLLRAANWARELLMAGFTTVRDCGEPNSIILRNAINEGIIPGPRIIAAGSAITQTFGHAELSHSLPLEWSIQLGFGEICDGVDECIKAARKVLRSGADFIKIMATGGVLSERDRPEWPQLTPEEMSAIVREAEKVGTYVAAHAHGDKGARIAVEAGVRTIEHGSLITEETVKLMAEKGVSLTPTLSIQELIYKYGKQMGIDPWGLEKIGQVREGVINSIKLARKYGVMILAGTDLGFKTGLDIDMGKNWVEVKLLVELGGLSSEEALRAATGNASKMLRLNTGIIREGYLADIVLINGNPLENINDIARVSTVIKGGKVTVENGKLI
modifications: exemplary polypeptide
[1]
  Specific OTA detoxification activities in % compared to the enzyme of SEQ ID NO: 2, pH 6.0: 46.00%
  Specific OTA detoxification activities in % compared to the enzyme of SEQ ID NO: 2, pH 7.5: 19.00%
[2]
  T50 (temperature at which 50% of the initial activity was maintained): >99 °C

B4: 36 (protein)
chain: MYSLAIRNGIVFDGEKFIGKTNIYVDGDKIVKITNERLDAKEEVNAEGYFVMPGLIDAHLHLTGARGGSLLMGYLLDDPRTRLLRAANWARELLMAGFTTVRDCGEPNSIILRNAINEGIIPGPRIIAAGSPITQTFGHAELSHSLPLEWSIQLGFGEICDGVDECIKAARKVLRSGADFIKIMATGGVLSERDRPEWPQLTPEEMSAIVREAEKVGTYVAAHAHGDKGARIAVEAGVRTIEHGSLITEETVKLMAEKGVSLTPTLSIQELIYKYGKQMGIDPWGLEKIGQVREGVINSIKLARKYGVMILAGTDLGFKTGLDIDMGKNWVEVKLLVELGGLSSEEALRAATGNASKMLRLNTGIIREGYLADIVLINGNPLENINDIARVSTVIKGGKVTVENGKLI
modifications: exemplary polypeptide
[1]
  Specific OTA detoxification activities in % compared to the enzyme of SEQ ID NO: 2, pH 6.0: 117.00%
  Specific OTA detoxification activities in % compared to the enzyme of SEQ ID NO: 2, pH 7.5: 309.00%
[2]
  T50 (temperature at which 50% of the initial activity was maintained): 99 °C

B5: 46 (protein)
chain: MYSLAIRNGIVFDGEKFIGKTNIYVDGDKIVKITNERLDAKEEVNAEGYFVMPGLIDAHLHLTGIRGGSLLMGYLLDDPRTRLLRAANWARELLMAGFTTVRDCGEPNSIILRNAINEGIIPGPRIIAAGSPITQTFGHAELSHSLPLEWSIQLGFGEICDGVDECIKAARKVLRSGADFIKIMATGGVLSERDRPEWPQLTPEEMSAIVREAEKVGTYVAAHAHGDKGARIAVEAGVRTIEHGSLITEETVKLMAEKGVSLTPTLSIQELIYKHGKQMGIDPWGLEKIGQVREGVINSIKLARKYGVMILAGTDLGFKTGLDIDMGKNWVEVKLLVELGGLSSEEALRAATGNASKMLRLNTGIIREGYLADIVLINGNPLENINDIARVSTVIKGGKVTVENGKLI
modifications: exemplary polypeptide
[1]
  Specific OTA detoxification activities in % compared to the enzyme of SEQ ID NO: 2, pH 6.0: 82.00%
  Specific OTA detoxification activities in % compared to the enzyme of SEQ ID NO: 2, pH 7.5: 66.00%
[2]
  T50 (temperature at which 50% of the initial activity was maintained): >99 °C

B6: 35 (protein)
chain: MYSLAIRNGIVFDGEKFIGKTNIYVDGDKIVKITNERLDAKEEVNAEGYFVMPGLIDAHLHLTGGRGGSLLMGYLLDDPRTRLLRAANWARELLMAGFTTVRDCGEPNSIILRNAINEGIIPGPRIIAAGSPITQTFGHAELSHSLPLEWSIQLGFGEICDGVDECIKAARKVLRSGADFIKIMATGGVLSERDRPEWPQLTPEEMSAIVREAEKVGTYVAAHAHGDKGARIAVEAGVRTIEHGSLITEETVKLMAEKGVSLTPTLSIQELIYKYGKQMGIDPWGLEKIGQVREGVINSIKLARKYGVMILAGTDLGFKTGLDIDMGKNWVEVKLLVELGGLSSEEALRAATGNASKMLRLNTGIIREGYLADIVLINGNPLENINDIARVSTVIKGGKVTVENGKLI
modifications: exemplary polypeptide
[1]
  Specific OTA detoxification activities in % compared to the enzyme of SEQ ID NO: 2, pH 6.0: 56.00%
  Specific OTA detoxification activities in % compared to the enzyme of SEQ ID NO: 2, pH 7.5: 136.00%
[2]
  T50 (temperature at which 50% of the initial activity was maintained): 99 °C

B7: 45 (protein)
chain: MYSLAIRNGIVFDGEKFIGKTNIYVDGDKIVKITNERLDAKEEVNAEGYFVMPGLIDAHLHLTGIRGGSLLMGYLLDDPRTRLLRAANWARELLMAGFTTVRDCGEPNSIILRNAINEGIIPGPRIIAAGSPITQTFGHAELSHSLPLEWSIQLGFGEICDGVDECIKAARKVLRSGADFIKIMATGGVLSERDRPEWPQLTPEEMSAIVREAEKVGTYVAAHAHGDKGARIAVEAGVRTIEHGSLITEETVKLMAEKGVSLTPTLSIQELIYKFGKQMGIDPWGLEKIGQVREGVINSIKLARKYGVMILAGTDLGFKTGLDIDMGKNWVEVKLLVELGGLSSEEALRAATGNASKMLRLNTGIIREGYLADIVLINGNPLENINDIARVSTVIKGGKVTVENGKLI
modifications: exemplary polypeptide
[1]
  Specific OTA detoxification activities in % compared to the enzyme of SEQ ID NO: 2, pH 6.0: 168.00%
  Specific OTA detoxification activities in % compared to the enzyme of SEQ ID NO: 2, pH 7.5: 138.00%
[2]
  T50 (temperature at which 50% of the initial activity was maintained): >99 °C

B8: 42 (protein)
chain: MYSLAIRNGIVFDGEKFIGKTNIYVDGDKIVKITNERLDAKEEVNAEGYFVMPGLIDAHLHLTGIRGGSLLMGYLLDDPRTRLLRAANWARELLMAGFTTVRDCGEPNSIILRNAINEGIIPGPRIIAAGSPITQTFGHAELSHSLPLEWSIQLGFGEICDGVDECIKAARKVLRSGADFIKIMATGGVLSERDRPEWPQLTPEEMSAIVREAEKVGTYVAAHAHGDKGARIAVEAGVRTIEHGSLITEETVKLMAEKGVSLTPTLSIQELIYKYGKQMGIDPWGLEKIGQVREGVINSIKLARKYGVMILAGTDLGVKTGLDIDMGKNWVEVKLLVELGGLSSEEALRAATGNASKMLRLNTGIIREGYLADIVLINGNPLENINDIARVSTVIKGGKVTVENGKLI
modifications: exemplary polypeptide
[1]
  Specific OTA detoxification activities in % compared to the enzyme of SEQ ID NO: 2, pH 6.0: 131.00%
  Specific OTA detoxification activities in % compared to the enzyme of SEQ ID NO: 2, pH 7.5: 595.00%
[2]
  T50 (temperature at which 50% of the initial activity was maintained): >99 °C

B9: 41 (protein)
chain: MYSLAIRNGIVFDGEKFIGKTNIYVDGDKIVKITNERLDAKEEVNAEGYFVMPGLIDAHLHLTGIRGGSLLMGYLLDDPRTRLLRAANWARELLMAGFTTVRDCGEPNSIILRNAINEGIIPGPRIIAAGSPITQTFGHAELSHSLPLEWSIQLGFGEICDGVDECIKAARKVLRSGADFIKIMATGGVLSERDRPEWPQLTPEEMSAIVREAEKVGTYVAAHAHGDKGARIAVEAGVRTIEHGSLITEETVKLMAEKGVSLTPTLSIQELIYKVGKQMGIDPWGLEKIGQVREGVINSIKLARKYGVMILAGTDLGFKTGLDIDMGKNWVEVKLLVELGGLSSEEALRAATGNASKMLRLNTGIIREGYLADIVLINGNPLENINDIARVSTVIKGGKVTVENGKLI
modifications: exemplary polypeptide
[1]
  Specific OTA detoxification activities in % compared to the enzyme of SEQ ID NO: 2, pH 6.0: 272.00%
  Specific OTA detoxification activities in % compared to the enzyme of SEQ ID NO: 2, pH 7.5: 1551.00%
[2]
  T50 (temperature at which 50% of the initial activity was maintained): 99 °C

B10: 47 (protein)
chain: MYSLAIRNGIVFDGEKFIGKTNIYVDGDKIVKITNERLDAKEEVNAEGYFVMPGLIDAHLHLTGARGGSLLMGYLLDDPRTRLLRAANWARELLMAGFTTVRDCGGPNSIILRNAINEGIIPGPRIIAAGSAITQTFGHAELSHSLPLEWSIQLGFGEICDGVDECIKAARKVLRSGADFIKIMATGGVLSERDRPEWPQLTPEEMSAIVREAEKVGTYVAAHAHGDKGARIAVEAGVRTIEHGSLITEETVKLMAEKGVSLTPTLSAIELVYKVGKQMGIDPWGLEKIGQVREGVINSIKLARKYGVMILAGTDLGVKTGLDIDMGKNWVEVKLLVELGGLSSEEALRAATGNASKMLRLNTGIIREGYLADIVLINGNPLENINDIARVSTVIKGGKVTVENGKLI
modifications: exemplary polypeptide
[1]
  Specific OTA detoxification activities in % compared to the enzyme of SEQ ID NO: 2, pH 6.0: 85.00%
  Specific OTA detoxification activities in % compared to the enzyme of SEQ ID NO: 2, pH 7.5: 267.00%
[2]
  T50 (temperature at which 50% of the initial activity was maintained): >99 °C
